In patent US20060018902A1 (published 2006):

T1: soluble EpoR (EposR) (human, UniProt P19235 25-250)
T1 chain: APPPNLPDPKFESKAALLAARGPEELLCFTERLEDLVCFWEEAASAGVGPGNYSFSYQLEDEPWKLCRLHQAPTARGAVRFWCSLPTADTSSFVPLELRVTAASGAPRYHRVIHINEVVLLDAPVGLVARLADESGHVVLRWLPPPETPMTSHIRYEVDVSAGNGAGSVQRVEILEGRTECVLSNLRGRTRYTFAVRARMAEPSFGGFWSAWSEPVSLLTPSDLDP

T2: soluble EpoR (EposR) (human, UniProt P19235 25-250, limits assumed)
T2 construct: also called soluble recombinant human EpoR
T2 sequence (looked up): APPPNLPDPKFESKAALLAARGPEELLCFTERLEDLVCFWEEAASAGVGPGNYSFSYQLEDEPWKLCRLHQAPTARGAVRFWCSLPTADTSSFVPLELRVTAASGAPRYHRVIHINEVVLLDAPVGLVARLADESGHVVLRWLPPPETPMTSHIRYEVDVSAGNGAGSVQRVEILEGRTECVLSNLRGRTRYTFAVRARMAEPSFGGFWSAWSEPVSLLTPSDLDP

T3: human erythropoietin receptor (EpoR) on human erythroleukemic cells (human, UniProt P19235 25-508)
T3 sequence (looked up): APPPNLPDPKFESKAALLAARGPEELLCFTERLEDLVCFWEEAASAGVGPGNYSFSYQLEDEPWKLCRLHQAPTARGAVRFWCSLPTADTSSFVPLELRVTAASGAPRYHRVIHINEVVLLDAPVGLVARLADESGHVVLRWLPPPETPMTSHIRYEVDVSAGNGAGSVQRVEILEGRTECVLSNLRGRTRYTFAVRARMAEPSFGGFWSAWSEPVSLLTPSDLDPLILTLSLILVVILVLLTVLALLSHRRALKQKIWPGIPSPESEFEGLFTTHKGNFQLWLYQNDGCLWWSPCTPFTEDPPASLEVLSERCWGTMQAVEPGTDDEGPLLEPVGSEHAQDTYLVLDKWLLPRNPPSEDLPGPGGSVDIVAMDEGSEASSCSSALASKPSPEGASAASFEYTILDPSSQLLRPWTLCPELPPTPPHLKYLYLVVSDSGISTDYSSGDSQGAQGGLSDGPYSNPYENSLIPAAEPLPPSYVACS


How the values were obtained:
[1] = target: T1, soluble EpoR (EposR); assay: yeast display flow cytometry
[2] = target: T2, soluble EpoR (EposR); assay: SPR (BIAcore), IgG2/K antibody, EposR as test antigen
Procedure: (§1) BIAcore analyses were performed on a BIAcore 2000 utilizing the BIAcontrol software version 3.1.0 and on a BIAcore 3000 utilizing the BIAcontrol software version 4.0.1. (BIAcore, Uppsala, Sweden) using EposR as the test antigen.

[3] = target: T3, human erythropoietin receptor (EpoR) on …; assay: cell-based or functional assay
[4] = target: T2, soluble EpoR (EposR); assay: SPR (BIAcore), IgG2/K sub-variant of Ab12.6, EposR as test antigen
Procedure: as §1
Sub-variants also were subjected to BIAcore analyses as described above.

Kd [1] [nM] | Kd [2] [nM] | koff [2] [s⁻¹] | kon [2] [M⁻¹ s⁻¹] | EC50 (cell proliferation) [3] [nM] | Emax (cell proliferation, absorbance) [3] | Kd [4] [nM] | koff [4] [s⁻¹] | kon [4] [M⁻¹ s⁻¹] | Binder
8.5 | – | – | – | – | – | – | – | – | Ab12 scFv construct with linker 41 in the tether position and linker 34 in the scFv linker position, displayed on yeast (scFv) scFv: GENKVEYAPALMALSQVQLQESGPGLVKPSETLSLTCTVSGASISSYYWSWIRQPPGKGLEWIGYIYYSGSTNYNPSLKSRVTISVDTSKNQFSLKLRSVTAADTAVYYCARERLGIGDYWGQGTLVTVSSGHEAAAVMQVQYPASDIQLTQSPSSLSASVGDRVTITCRASQGIRNDLGWYQQKPGKAPKRLIYAASSLQSGVPSRFSGSGSGTEFTLTISSLQPEDFATYYCLQHNTYPPTFGQGTKVEIK
4 | – | – | – | – | – | – | – | – | Ab12 41/40 scFv (linker 41 as tether, linker 40 as scFv linker), displayed on yeast (scFv) scFv: GENKVEYAPALMALSQVQLQESGPGLVKPSETLSLTCTVSGASISSYYWSWIRQPPGKGLEWIGYIYYSGSTNYNPSLKSRVTISVDTSKNQFSLKLRSVTAADTAVYYCARERLGIGDYWGQGTLVTVSSGPAKELTPLKEAKVSDIQLTQSPSSLSASVGDRVTITCRASQGIRNDLGWYQQKPGKAPKRLIYAASSLQSGVPSRFSGSGSGTEFTLTISSLQPEDFATYYCLQHNTYPPTFGQGTKVEIK
9 | – | – | – | – | – | – | – | – | Ab12 scFv construct with Gly/Ser linker (WT) in both the tether and scFv linker positions, displayed on yeast (scFv) scFv: GGGGSGGGGSGGGGSQVQLQESGPGLVKPSETLSLTCTVSGASISSYYWSWIRQPPGKGLEWIGYIYYSGSTNYNPSLKSRVTISVDTSKNQFSLKLRSVTAADTAVYYCARERLGIGDYWGQGTLVTVSSGGGGSGGGGSGGGGSDIQLTQSPSSLSASVGDRVTITCRASQGIRNDLGWYQQKPGKAPKRLIYAASSLQSGVPSRFSGSGSGTEFTLTISSLQPEDFATYYCLQHNTYPPTFGQGTKVEIK
– | 11 | 0.0013 | 140000 | 1.29 | 1.98 absorbance (OD 490 nm) | – | – | – | Ab12 IgG2/K (antibody, V domains shown, Human IgG2/kappa) VH: QVQLQESGPGLVKPSETLSLTCTVSGASISSYYWSWIRQPPGKGLEWIGYIYYSGSTNYNPSLKSRVTISVDTSKNQFSLKLRSVTAADTAVYYCARERLGIGDYWGQGTLVTVSS VL: DIQLTQSPSSLSASVGDRVTITCRASQGIRNDLGWYQQKPGKAPKRLIYAASSLQSGVPSRFSGSGSGTEFTLTISSLQPEDFATYYCLQHNTYPPTFGQGTKVEIK
– | – | – | – | 0.42 | 2.4 absorbance (OD 490 nm) | 23 | 0.0049 | 220000 | Ab12.122 (antibody, IgG2, V domains shown) VH: QVQLQESGPGLVKPSETLSLTCTVSGASISSYYWSWIRQPPGKGLEWIGYIYGEGSTNYNPSLKSRVTISVDTSKNQFSLKLRSVTAADTAVYYCARERLGIGDYWGQGTLVTVSS VL: DIQLTQSPSSLSASVGDRVTITCRASQGIRNDLGWYQQKPGKAPKRLIYAASSLQSGVPSRFSGSGSGTEFTLTISSLQPEDFATYYCLQHNTYPPTFGQGTKVEIK
– | – | – | – | 1.34 | 2.53 absorbance (OD 490 nm) | 21 | 0.0044 | 210000 | Ab12.119 (antibody, IgG2, V domains shown) VH: QVQLQESGPGLVKPSETLSLTCTVSGASISSYYWSWIRQPPGKGLEWIGYIYGSGSTNYNPSLKSRVTISVDTSKNQFSLKLRSVTAADTAVYYCARERLGIGDYWGQGTLVTVSS VL: DIQLTQSPSSLSASVGDRVTITCRASQGIRNDLGWYQQKPGKAPKRLIYAASSLQSGVPSRFSGSGSGTEFTLTISSLQPEDFATYYCLQHNTYPPTFGQGTKVEIK
– | – | – | – | 0.34 | 2 absorbance (OD 490 nm) | 7 | 0.002 | 270000 | Ab12.120 (antibody, IgG2, V domains shown) VH: QVQLQESGPGLVKPSETLSLTCTVSGASISSYYWSWIRQPPGKGLEWIGYIYYEGSTNYNPSLKSRVTISVDTSKNQFSLKLRSVTAADTAVYYCARERLGIGDYWGQGTLVTVSS VL: DIQLTQSPSSLSASVGDRVTITCRASQGIRNDLGWYQQKPGKAPKRLIYAASSLQSGVPSRFSGSGSGTEFTLTISSLQPEDFATYYCLQHNTYPPTFGQGTKVEIK
– | – | – | – | 0.465 | 2.3 absorbance (OD 490 nm) | 31 | 0.0063 | 210000 | Ab12.121 (antibody, IgG2, V domains shown) VH: QVQLQESGPGLVKPSETLSLTCTVSGASISSYYWSWIRQPPGKGLEWIGYIGGSGSTNYNPSLKSRVTISVDTSKNQFSLKLRSVTAADTAVYYCARERLGIGDYWGQGTLVTVSS VL: DIQLTQSPSSLSASVGDRVTITCRASQGIRNDLGWYQQKPGKAPKRLIYAASSLQSGVPSRFSGSGSGTEFTLTISSLQPEDFATYYCLQHNTYPPTFGQGTKVEIK
– | 32 | 0.0048 | 150000 | 0.58 | 2.81 absorbance (OD 490 nm) | – | – | – | Ab12.6 (antibody, V domains shown, CDRH2 Y Y S is changed to G G E against Ab12; also called H2-1-3 R2 #6) VH: QVQLQESGPGLVKPSETLSLTCTVSGASISSYYWSWIRQPPGKGLEWIGYIGGEGSTNYNPSLKSRVTISVDTSKNQFSLKLRSVTAADTAVYYCARERLGIGDYWGQGTLVTVSS VL: DIQLTQSPSSLSASVGDRVTITCRASQGIRNDLGWYQQKPGKAPKRLIYAASSLQSGVPSRFSGSGSGTEFTLTISSLQPEDFATYYCLQHNTYPPTFGQGTKVEIK
– | 20 | 0.0019 | 94000 | 1.17 | 2.51 absorbance (OD 490 nm) | – | – | – | Ab12.56 (antibody, V domains shown, CDRH2 Y Y S is changed to A G T against Ab12) VH: QVQLQESGPGLVKPSETLSLTCTVSGASISSYYWSWIRQPPGKGLEWIGYIAGTGSTNYNPSLKSRVTISVDTSKNQFSLKLRSVTAADTAVYYCARERLGIGDYWGQGTLVTVSS VL: DIQLTQSPSSLSASVGDRVTITCRASQGIRNDLGWYQQKPGKAPKRLIYAASSLQSGVPSRFSGSGSGTEFTLTISSLQPEDFATYYCLQHNTYPPTFGQGTKVEIK
– | – | – | – | 0.91 | 2.7 absorbance (OD 490 nm) | 25 | 0.0033 | 130000 | Ab12.123 (antibody, IgG2, V domains shown) VH: QVQLQESGPGLVKPSETLSLTCTVSGASISSYYWSWIRQPPGKGLEWIGYIGYEGSTNYNPSLKSRVTISVDTSKNQFSLKLRSVTAADTAVYYCARERLGIGDYWGQGTLVTVSS VL: DIQLTQSPSSLSASVGDRVTITCRASQGIRNDLGWYQQKPGKAPKRLIYAASSLQSGVPSRFSGSGSGTEFTLTISSLQPEDFATYYCLQHNTYPPTFGQGTKVEIK
– | – | – | – | 1.13 | 2.65 absorbance (OD 490 nm) | 22 | 0.0055 | 250000 | Ab12.118 (antibody, IgG2, V domains shown) VH: QVQLQESGPGLVKPSETLSLTCTVSGASISSYYWSWIRQPPGKGLEWIGYIGYSGSTNYNPSLKSRVTISVDTSKNQFSLKLRSVTAADTAVYYCARERLGIGDYWGQGTLVTVSS VL: DIQLTQSPSSLSASVGDRVTITCRASQGIRNDLGWYQQKPGKAPKRLIYAASSLQSGVPSRFSGSGSGTEFTLTISSLQPEDFATYYCLQHNTYPPTFGQGTKVEIK
– | 6 | 0.00099 | 160000 | – | – | – | – | – | Ab12.70 (antibody, V domains shown, also called H2-4-1 R2 #8,9) VH: QVQLQESGPGLVKPSETLSLTCTVSGASISSYYWSWIRQPPGKGLEWIGYIYSPSSTNYNPSLKSRVTISVDTSKNQFSLKLRSVTAADTAVYYCARERLGIGDYWGQGTLVTVSS VL: DIQLTQSPSSLSASVGDRVTITCRASQGIRNDLGWYQQKPGKAPKRLIYAASSLQSGVPSRFSGSGSGTEFTLTISSLQPEDFATYYCLQHNTYPPTFGQGTKVEIK
5 | – | – | – | – | – | – | – | – | Ab12 scFv construct with linker 41 in the tether position and the Gly/Ser linker (WT) in the scFv linker position, displayed on yeast (scFv) scFv: GENKVEYAPALMALSQVQLQESGPGLVKPSETLSLTCTVSGASISSYYWSWIRQPPGKGLEWIGYIYYSGSTNYNPSLKSRVTISVDTSKNQFSLKLRSVTAADTAVYYCARERLGIGDYWGQGTLVTVSSGGGGSGGGGSGGGGSDIQLTQSPSSLSASVGDRVTITCRASQGIRNDLGWYQQKPGKAPKRLIYAASSLQSGVPSRFSGSGSGTEFTLTISSLQPEDFATYYCLQHNTYPPTFGQGTKVEIK
